Laboratory results published in patent EP1007561B1.

Biological target: opiate receptors of rat brain homogenate ([3H]-Naloxone binding sites, non-selective binding assay) (rat)
Test: displacement of 1.0 nM [3H]-Naloxone from rat brain homogenate, filtration; compound at 10 nM

CCI-H (20% HSA•MPA-AEA3-Dyn A 2-17-NH2) (from UniProt P02768 25-609)
% INHIBITION AT 10 nM: 1.28%
